Source: the supplement of paper PMC10567573

B1: LCOR (parent)
chain: YKVKERLGTLKNPPKKKMKLMSG
B2: FAM189A2 (parent)
chain: NLAGFILGCQGAQFVSSVPRCDLV

Variants of: B1
Test: protein stability index of a GFP-peptide fusion (GPS, HEK-293T) (PSI 1-6); higher = more stable
Conditions: c terminus: native
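Note: lentivirally expressed fusions sorted by FACS into six bins by GFP to DsRed ratio, PSI derived from sequencing read proportions per bin multiplied by bin number.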

Protein stability index: each site, then its substitutions
E5: C 1.74; A 1.75; D 1.78
K4: Q 1.88; V 1.22; Y 2.3; M 1.26; L 2.23; P 1.35; A 1.88; D 1.45; S 1.93; G 2.1; W 3.3; H 2.52; E 2.48; N 2.97; R 3.6
K2: S 1.8; Q 1.31; W 3.46; V 3.04; A 1.48; N 1.45; Y 2.37; I 1.72; H 1.88; G 1.64; E 1.71; L 3.05; D 1.48; C 1.79
V3: P 2.27; G 1.67; R 2.51; T 1.91; L 1.97; K 1.98; F 1.62; C 1.6; M 2.46; N 2.69; H 1.89; D 2.36; S 1.92; E 2.08; Y 1.69; Q 3.06; W 3.38
Y1: L 2.59; E 2.15; N 1.9; D 2.03; P 1.72; K 1.54; F 1.23; G 1.2; M 1.93; S 2.2; W 2.2; V 2.05; A 2.34

Variants of: B2
Test: as above
Conditions: c terminus: a fixed tail appended

Protein stability index of substitutions, site by site:
A12: E 3.98; R 3.12; K 1.89; D 4.07; F 2.91; P 2.99; L 2.95; W 2.15; C 2.54; H 1.03
Q13: D 2.27; Y 3.26; T 3.16; N 2.93; P 2.31; A 4.08; C 2.76; F 3; V 2.53; M 2.01
D22: C 2.27; K 2.59; E 1.18; I 2.13; G 1.75; N 3.21; P 3.08; V 2.39; M 2.78; F 2.58
Q10: C 1.49; I 2.87; R 2.51; G 2.63; H 2.76; T 3.84; L 1.53; D 3.6; M 3.99; P 4.29
V15: R 1.75; E 1.94; Y 2.46; Q 3.5; D 1.55; K 2.19; C 2.72; L 3.14; H 3.13
A3: Q 1.03; P 1.45; N 4.16; D 1.84; F 2.77; H 2; R 1.72; W 3.4; T 3.18; M 3.4; K 2.35; E 2.11; Y 3.97; S 1.12
G8: R 2.34; D 2.19; P 2.03; I 3.23; T 2.17; F 3.47; L 2.81; K 3.72; Y 3.33; W 2.45
G4: D 2.36; M 4.18; C 3.26; N 3.42; F 2.45; P 3.65; Y 4.24; T 3.08
V24: A 1.72; D 1.76; R 2.19; T 1.53; Q 2.26; S 2.12; P 2.59; C 3.68; K 1.82; E 2.23; F 2.58; I 2.26; H 3.38
V18: K 1.99; M 3.72; Y 2.68; F 2.54; L 2.27; P 2.8; S 2.4; N 2.59; R 1.78; E 1.05; T 1.68; I 3.42; G 1.61; D 2.55; C 2.83
F5: S 1.87; P 3.25; I 5.13; D 2.16; E 2.18; N 2.19; M 1.7; G 1.5; Q 2.27; T 1.86; H 2.71
N1: A 3.77; Q 1.85; K 2.77; Y 3.31; L 2.75; R 2.73; H 2.03; P 2.63; W 3.42
G11: P 3.59; R 5.06; D 2.76; Y 3.45; L 3.39; W 3.48; I 3.71; N 3.08
L7: N 2.75; S 2.02; P 1.43; M 2; Q 2.1; D 2.19; R 1.63; H 1.73; G 1.82; T 2.58; K 1.69; C 2.6; E 1.77; F 2.51
C9: R 1.23; K 1.74; G 2.35; F 2.36; H 3.12; E 2.54; V 2.04; A 2.62; P 1.11; S 2.71; L 1.76; D 1.38
R20: K 2.1; Q 1.45; D 3.39; G 3.08; I 2.15; F 2.19; E 1.96; H 3.48; L 1.87; Y 1.75; M 2.91
S17: T 1.97; I 1.39; H 3.37; D 1.72; M 1.47; W 3.85; K 2.33; R 2.1; E 2.31; Y 3.35; Q 2.31
L2: C 1.31; H 1.7; R 1.87; N 1.97; P 1.26; S 1.55; Y 2.72; E 2.13; W 1.35; G 1.23; Q 3.01; I 3.93; D 3.18; K 2.67; T 1.76
C21: S 1.68; D 2.33; R 1.64; K 3.12; F 2.92; A 2.57; Q 2.07; M 2.81; H 2.54; N 2.79
P19: F 3.04; H 3.01; Q 2.65; A 3.01; M 1.45; T 3.3; C 3.7; N 3.15; R 2.56
I6: A 1.46; H 1.64; Y 2.26; W 1.76; R 1.78; N 2.11; C 2.3; G 1.79; E 1.49; T 1.66; D 2.68; Q 1.94; F 2.78; K 2.29; V 2.18; P 1.6; S 1.98
F14: A 1.29; V 2.29; P 2.4; N 1.72; W 2.78; Y 2.9; M 2.71; E 1.34; H 1.87; K 1.16; Q 1.92; R 1.27; T 1.27
L23: G 1.28; S 1.93; R 1.58; C 3.66; W 3.69; N 2.75; D 2.45; Y 2.52; P 2.98; I 2.33; K 1.94; F 3.42
S16: H 1.8; G 3.41; K 3.56; R 2.89; E 2.21; W 3.86; L 2.34; C 2.58; I 3.41; D 1.04; N 1.72
